According to patent US20220370632A1 (HEIDELBERG PHARMA RESEARCH, published 2022):

T1: human CD37 on CD37-positive human cell lines (MEC-1, MEC-2, Raji, Ramos) (human, UniProt P11049 1-281)
T1 construct: Endogenous CD37 of human B-cell lines; the UniProt identifier is printed as 'P1 1049-1'; also called CD37 human; tetraspanin TSPAN26
T1 sequence: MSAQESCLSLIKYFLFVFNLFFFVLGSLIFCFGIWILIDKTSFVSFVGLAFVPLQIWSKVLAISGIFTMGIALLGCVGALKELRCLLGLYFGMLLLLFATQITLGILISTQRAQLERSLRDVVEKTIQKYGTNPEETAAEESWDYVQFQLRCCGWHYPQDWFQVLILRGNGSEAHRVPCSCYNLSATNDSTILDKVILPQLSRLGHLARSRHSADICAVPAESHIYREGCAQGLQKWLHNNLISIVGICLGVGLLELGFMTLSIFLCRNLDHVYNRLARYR

B1: chHH1-HDP-LALA-D265C (antibody, human IgG1, kappa, L234A L235A)
heavy: EIQLQQSGPELVKPGASVKVSCKASGYSFTDYNMYWVKQSHGKSLEWIGYIDPYNGDTTYNQKFKGKATLTVDKSSSTAFIHLNSLTSEDSAVYYCARSPYGHYAMDYWGQGTSVTVSSASTKGPSVFPLAPSSKSTSGGTAALGCLVKDYFPEPVTVSWNSGALTSGVHTFPAVLQSSGLYSLSSVVTVPSSSLGTQTYICNVNHKPSNTKVDKKVEPKSCDKTHTCPPCPAPEAAGGPSVFLFPPKPKDTLMISRTPEVTCVVVCVSHEDPEVKFNWYVDGVEVHNAKTKPREEQYNSTYRVVSVLTVLHQDWLNGKEYKCKVSNKALPAPIEKTISKAKGQPREPQVYTLPPSREEMTKNQVSLTCLVKGFYPSDIAVEWESNGQPENNYKTTPPVLDSDGSFFLYSKLTVDKSRWQQGNVFSCSVMHEALHNHYTQKSLSLSPGK
light: DIVMTQSHKLLSTSVGDRVSITCKASQDVSTAVDWYQQKPGQSPKLLINWASTRHTGVPDRFTGSGSGTDYTLTISSMQAEDLALYYCRQHYSTPFTFGSGTKLEIKRTVAAPSVFIFPPSDEQLKSGTASVVCLLNNFYPREAKVQWKVDNALQSGNSQESVTEQDSKDSTYSLSSTLTLSKADYEKHKVYACEVTHQGLSSPVTKSFNRGEC
notes: Unconjugated chimeric antibody; Expressed in CHO or HEK293 cells; also called anti-CD37 monoclonal antibody chHH1-LALA-D265C; anti-CD37 chHH1-HDP-LALA-D265C
B2: chHH1-HDP-(XV) (antibody)
heavy: not shown
light: DIVMTQSHKLLSTSVGDRVSITCKASQDVSTAVDWYQQKPGQSPKLLINWASTRHTGVPDRFTGSGSGTDYTLTISSMQAEDLALYYCRQHYSTPFTFGSGTKLEIKRTVAAPSVFIFPPSDEQLKSGTASVVCLLNNFYPREAKVQWKVDNALQSGNSQESVTEQDSKDSTYSLSSTLTLSKADYEKHKVYACEVTHQGLSSPVTKSFNRGEC
modifications: amatoxin-linker moiety of formula (XV), DAR 3.36; cysteine residues carrying it not stated
B3: conjugate XXVI (antibody)
heavy: EIQLQQSGPELVKPGASVKVSCKASGYSFTDYNMYWVKQSHGKSLEWIGYIDPYNGDTTYNQKFKGKATLTVDKSSSTAFIHLNSLTSEDSAVYYCARSPYGHYAMDYWGQGTSVTVSSASTKGPSVFPLAPSSKSTSGGTAALGCLVKDYFPEPVTVSWNSGALTSGVHTFPAVLQSSGLYSLSSVVTVPSSSLGTQTYICNVNHKPSNTKVDKKVEPKSCDKTHTCPPCPAPEAAGGPSVFLFPPKPKDTLMISRTPEVTCVVVCVSHEDPEVKFNWYVDGVEVHNAKTKPREEQYNSTYRVVSVLTVLHQDWLNGKEYKCKVSNKALPAPIEKTISKAKGQPREPQVYTLPPSREEMTKNQVSLTCLVKGFYPSDIAVEWESNGQPENNYKTTPPVLDSDGSFFLYSKLTVDKSRWQQGNVFSCSVMHEALHNHYTQKSLSLSPGK
light: DIVMTQSHKLLSTSVGDRVSITCKASQDVSTAVDWYQQKPGQSPKLLINWASTRHTGVPDRFTGSGSGTDYTLTISSMQAEDLALYYCRQHYSTPFTFGSGTKLEIKRTVAAPSVFIFPPSDEQLKSGTASVVCLLNNFYPREAKVQWKVDNALQSGNSQESVTEQDSKDSTYSLSSTLTLSKADYEKHKVYACEVTHQGLSSPVTKSFNRGEC
modifications: amatoxin-linker moiety of formula (XV) on heavy chain 265Cys (EU numbering); DAR 3.15
B4: chHH1-HDP-(XIII) (antibody)
heavy: not shown
light: DIVMTQSHKLLSTSVGDRVSITCKASQDVSTAVDWYQQKPGQSPKLLINWASTRHTGVPDRFTGSGSGTDYTLTISSMQAEDLALYYCRQHYSTPFTFGSGTKLEIKRTVAAPSVFIFPPSDEQLKSGTASVVCLLNNFYPREAKVQWKVDNALQSGNSQESVTEQDSKDSTYSLSSTLTLSKADYEKHKVYACEVTHQGLSSPVTKSFNRGEC
modifications: amatoxin-linker moiety of formula (XIII); DAR printed as '-'; cysteine residues carrying it not stated
B5: chHH1-HDP-D265C-(XIII) (antibody)
heavy: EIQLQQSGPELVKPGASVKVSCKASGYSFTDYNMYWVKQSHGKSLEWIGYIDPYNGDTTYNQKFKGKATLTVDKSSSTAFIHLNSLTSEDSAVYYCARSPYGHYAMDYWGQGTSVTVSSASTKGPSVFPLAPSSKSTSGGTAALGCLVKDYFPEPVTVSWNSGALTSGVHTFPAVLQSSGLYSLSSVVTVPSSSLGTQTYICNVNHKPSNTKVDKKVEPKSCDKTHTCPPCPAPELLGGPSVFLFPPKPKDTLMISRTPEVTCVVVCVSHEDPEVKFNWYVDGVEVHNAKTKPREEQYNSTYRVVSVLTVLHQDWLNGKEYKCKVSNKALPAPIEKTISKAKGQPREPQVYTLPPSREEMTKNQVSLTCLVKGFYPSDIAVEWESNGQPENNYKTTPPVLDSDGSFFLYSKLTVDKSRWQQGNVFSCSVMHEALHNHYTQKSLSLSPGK
light: DIVMTQSHKLLSTSVGDRVSITCKASQDVSTAVDWYQQKPGQSPKLLINWASTRHTGVPDRFTGSGSGTDYTLTISSMQAEDLALYYCRQHYSTPFTFGSGTKLEIKRTVAAPSVFIFPPSDEQLKSGTASVVCLLNNFYPREAKVQWKVDNALQSGNSQESVTEQDSKDSTYSLSSTLTLSKADYEKHKVYACEVTHQGLSSPVTKSFNRGEC
modifications: amatoxin-linker moiety of formula (XIII) on heavy chain 265Cys (EU numbering); DAR 1.96
B6: conjugate XXIV (antibody)
heavy: EIQLQQSGPELVKPGASVKVSCKASGYSFTDYNMYWVKQSHGKSLEWIGYIDPYNGDTTYNQKFKGKATLTVDKSSSTAFIHLNSLTSEDSAVYYCARSPYGHYAMDYWGQGTSVTVSSASTKGPSVFPLAPSSKSTSGGTAALGCLVKDYFPEPVTVSWNSGALTSGVHTFPAVLQSSGLYSLSSVVTVPSSSLGTQTYICNVNHKPSNTKVDKKVEPKSCDKTHTCPPCPAPEAAGGPSVFLFPPKPKDTLMISRTPEVTCVVVCVSHEDPEVKFNWYVDGVEVHNAKTKPREEQYNSTYRVVSVLTVLHQDWLNGKEYKCKVSNKALPAPIEKTISKAKGQPREPQVYTLPPSREEMTKNQVSLTCLVKGFYPSDIAVEWESNGQPENNYKTTPPVLDSDGSFFLYSKLTVDKSRWQQGNVFSCSVMHEALHNHYTQKSLSLSPGK
light: DIVMTQSHKLLSTSVGDRVSITCKASQDVSTAVDWYQQKPGQSPKLLINWASTRHTGVPDRFTGSGSGTDYTLTISSMQAEDLALYYCRQHYSTPFTFGSGTKLEIKRTVAAPSVFIFPPSDEQLKSGTASVVCLLNNFYPREAKVQWKVDNALQSGNSQESVTEQDSKDSTYSLSSTLTLSKADYEKHKVYACEVTHQGLSSPVTKSFNRGEC
modifications: amatoxin-linker moiety of formula (XIII) on heavy chain 265Cys (EU numbering); DAR printed as '-'
B7: chHH1-HDP-D265C-(XV) (antibody)
heavy: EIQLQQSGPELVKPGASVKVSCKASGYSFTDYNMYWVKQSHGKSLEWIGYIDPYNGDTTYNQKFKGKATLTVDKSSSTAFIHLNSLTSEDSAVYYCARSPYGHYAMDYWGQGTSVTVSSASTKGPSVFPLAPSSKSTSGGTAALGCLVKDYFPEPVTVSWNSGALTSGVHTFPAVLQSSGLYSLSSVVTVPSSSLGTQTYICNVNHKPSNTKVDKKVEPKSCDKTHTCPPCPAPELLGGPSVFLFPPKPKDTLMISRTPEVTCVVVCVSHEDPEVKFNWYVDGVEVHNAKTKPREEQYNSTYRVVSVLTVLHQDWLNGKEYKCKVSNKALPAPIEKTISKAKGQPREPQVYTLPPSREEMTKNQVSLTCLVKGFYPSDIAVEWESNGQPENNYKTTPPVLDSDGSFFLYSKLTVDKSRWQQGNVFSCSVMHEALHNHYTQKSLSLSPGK
light: DIVMTQSHKLLSTSVGDRVSITCKASQDVSTAVDWYQQKPGQSPKLLINWASTRHTGVPDRFTGSGSGTDYTLTISSMQAEDLALYYCRQHYSTPFTFGSGTKLEIKRTVAAPSVFIFPPSDEQLKSGTASVVCLLNNFYPREAKVQWKVDNALQSGNSQESVTEQDSKDSTYSLSSTLTLSKADYEKHKVYACEVTHQGLSSPVTKSFNRGEC
modifications: amatoxin-linker moiety of formula (XV) on heavy chain 265Cys (EU numbering); DAR 2.80
B8: chHH1-HDP-D265C-(XII) (antibody)
heavy: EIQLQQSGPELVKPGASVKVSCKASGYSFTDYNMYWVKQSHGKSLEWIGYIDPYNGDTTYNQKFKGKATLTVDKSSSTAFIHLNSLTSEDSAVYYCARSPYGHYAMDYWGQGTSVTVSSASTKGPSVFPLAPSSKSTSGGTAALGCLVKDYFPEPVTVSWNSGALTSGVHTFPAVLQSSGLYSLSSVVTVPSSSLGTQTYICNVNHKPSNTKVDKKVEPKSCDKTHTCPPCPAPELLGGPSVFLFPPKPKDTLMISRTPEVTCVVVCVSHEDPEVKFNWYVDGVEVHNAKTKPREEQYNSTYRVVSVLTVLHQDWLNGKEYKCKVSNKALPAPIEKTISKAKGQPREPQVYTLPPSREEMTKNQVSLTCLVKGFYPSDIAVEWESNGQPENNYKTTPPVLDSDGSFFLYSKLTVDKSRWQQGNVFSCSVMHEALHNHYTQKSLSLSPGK
light: DIVMTQSHKLLSTSVGDRVSITCKASQDVSTAVDWYQQKPGQSPKLLINWASTRHTGVPDRFTGSGSGTDYTLTISSMQAEDLALYYCRQHYSTPFTFGSGTKLEIKRTVAAPSVFIFPPSDEQLKSGTASVVCLLNNFYPREAKVQWKVDNALQSGNSQESVTEQDSKDSTYSLSSTLTLSKADYEKHKVYACEVTHQGLSSPVTKSFNRGEC
modifications: amatoxin-linker moiety of formula (XII) on heavy chain 265Cys (EU numbering); DAR 2.03

target: T1, human CD37 on CD37-positive human cell …; assay: flow cytometry (FACS) on MEC-2 cells, median fluorescence against antibody concentration

For B1, the “EC50 (read off the curve)” value was about 3 µg/mL.

target: T1, human CD37 on CD37-positive human cell …; assay: cell-based or functional assay

Going from B2 to B3, the “EC 50 [M], cytotoxicity in vitro on MEC-2 cells” value (shortened to “EC 50 [M] … on MEC-2 cells”) falls from 6.06e-08 M to 7.54e-09 M (8-fold).

First: B4
Second: B5
The “EC 50 [M] … on MEC-2 cells” value of the first is 9.7-fold lower: 5.59e-10 M for the first, 5.41e-09 M for the second.

B6 and B7 are within 1.5-fold of each other in “EC 50 [M] … on MEC-2 cells” value: 1.19e-08 M for the first, 1.11e-08 M for the second.

B8 was tested, and the “EC 50 [M] … on MEC-2 cells” value was 2.14e-08 M.

Compared with B2, B3 is 3.3-fold higher in “EC 50 [M], cytotoxicity in vitro on Raji cells” value (“EC 50 [M] … on Raji cells” below): 6.1e-10 M for the first, 2.04e-09 M for the second.

B4 and B5 are within 1.5-fold of each other in “EC 50 [M] … on Raji cells” value: 4.8e-10 M for the first, 6.2e-10 M for the second.

First: B6
Second: B7
The “EC 50 [M] … on Raji cells” value of the first is 2.2-fold lower: 7.5e-10 M for the first, 1.63e-09 M for the second.

For B8, the “EC 50 [M] … on Raji cells” value was 3.9e-09 M.

Compared with B2, B3 is 3.8-fold higher in “EC 50 [M], cytotoxicity in vitro on Ramos cells” value (“EC 50 [M] … on Ramos cells” for short): 8.5e-11 M for the first, 3.2e-10 M for the second.

First: B4
Second: B5
The “EC 50 [M] … on Ramos cells” value of the first is 2-fold lower: 5.6e-11 M for the first, 1.1e-10 M for the second.

First: B6
Second: B7
The “EC 50 [M] … on Ramos cells” value of the first is 5.5-fold lower: 8.6e-11 M for the first, 4.7e-10 M for the second.

In the case of B8, the “EC 50 [M] … on Ramos cells” value is reported as 2.2e-10 M.

target: T1, human CD37 on CD37-positive human cell …; assay: flow cytometry (FACS) on Ramos cells, median fluorescence against antibody concentration

For B1, the “EC50 (read off the curve)” value was about 1 µg/mL.
